This note sets out measurements from article PMC6472344, “Self-organization of Plk4 regulates symmetry breaking in centriole duplication” (Nature Communications, 2019).

Data set [1] concerns the molecule itself. As to the kind of experiment: co-sedimentation; spin-down assay: 500 nM GST-Plk4(Kinase + L1)-His6 incubated at 30 °C for 1 h in kinase buffer (20 mM Tris pH 7.5, 300 or 500 mM NaCl, 30 μM ATP, 5 mM MgCl2, 1 mM β-mercaptoethanol), GST cut off with PreScission protease at 4 °C overnight, centrifuged at 21,500 x g for 10 min; supernatant and pellet by SDS-PAGE and CBB staining.

Data set [2] deals with the molecule itself. As to the kind of experiment: Proteostat aggregation assay (dye fluorescence); 300 nM GST-Plk4 (Kinase + L1)-His6 in 20 mM Tris pH 7.5, 300 mM NaCl, 1 mM β-mercaptoethanol, 0.1 mM MnCl2, 37 °C for 1 h with or without lambda phosphatase; fluorescence normalised to the WT.

B1: Plk4 (Kinase + L1)-His6, kinase-dead (D154A), after GST-tag cleavage (domain or fragment, human, UniProt O00444 1-585, looked up)
chain: MATCIGEKIEDFKVGNLLGKGSFAGVYRAESIHTGLEVAIKMIDKKAMYKAGMVQRVQNEVKIHCQLKHPSILELYNYFEDSNYVYLVLEMCHNGEMNRYLKNRVKPFSENEARHFMHQIITGMLYLHSHGILHRDLTLSNLLLTRNMNIKIAAFGLATQLKMPHEKHYTLCGTPNYISPEIATRSAHGLESDVWSLGCMFYTLLIGRPPFDTDTVKNTLNKVVLADYEMPSFLSIEAKDLIHQLLRRNPADRLSLSSVLDHPFMSRNSSTKSKDLGTVEDSIDSGHATISTAITASSSTSISGSLFDKRRLLIGQPLPNKMTVFPKNKSSTDFSSSGDGNSFYTQWGNQETSNSGRGRVIQDAEERPHSRYLRRAYSSDRSGTSNSQSQAKTYTMERCHSAEMLSVSKRSGGGENEERYSPTDNNANIFNFFKEKTSSSSGSFERPDNNQALSNHLCPGKTPFPFADPTPQTETVQQWFGNLQINAHLRKTTEYDSISPNRDFQGHPDLQKDTSKNAWTDTKVKKNSDASDNAHSVKQQNTMKYMTALHSKPEIIQQECVFGSDPLSEQSKTRGMEPPWGYQNR
notes: human Polo-like kinase 4 (Plk4), kinase domain and Linker 1, residues 1-585, kinase-dead; also called KD mutant; KD; source: E. coli BL21 gold (DE3), purified (glutathione sepharose, Ni-agarose); GST cut off with PreScission protease; not shown: GST, N-terminal, cleaved; His6, C-terminal, kept
For the protein B1, in data set [1], the binding result is reported as “binds”.

B2: GST-Plk4 (Kinase + L1)-His6, wild type, dephosphorylated with lambda phosphatase (domain or fragment, human, UniProt O00444 1-585, looked up)
chain: MATCIGEKIEDFKVGNLLGKGSFAGVYRAESIHTGLEVAIKMIDKKAMYKAGMVQRVQNEVKIHCQLKHPSILELYNYFEDSNYVYLVLEMCHNGEMNRYLKNRVKPFSENEARHFMHQIITGMLYLHSHGILHRDLTLSNLLLTRNMNIKIADFGLATQLKMPHEKHYTLCGTPNYISPEIATRSAHGLESDVWSLGCMFYTLLIGRPPFDTDTVKNTLNKVVLADYEMPSFLSIEAKDLIHQLLRRNPADRLSLSSVLDHPFMSRNSSTKSKDLGTVEDSIDSGHATISTAITASSSTSISGSLFDKRRLLIGQPLPNKMTVFPKNKSSTDFSSSGDGNSFYTQWGNQETSNSGRGRVIQDAEERPHSRYLRRAYSSDRSGTSNSQSQAKTYTMERCHSAEMLSVSKRSGGGENEERYSPTDNNANIFNFFKEKTSSSSGSFERPDNNQALSNHLCPGKTPFPFADPTPQTETVQQWFGNLQINAHLRKTTEYDSISPNRDFQGHPDLQKDTSKNAWTDTKVKKNSDASDNAHSVKQQNTMKYMTALHSKPEIIQQECVFGSDPLSEQSKTRGMEPPWGYQNR
notes: human Polo-like kinase 4 (Plk4), kinase domain and Linker 1, residues 1-585; The same construct as m5 after removal of its autophosphorylation by λPP; also called λPP-treated WT Plk4 fragments; source: E. coli BL21 gold (DE3), purified (glutathione sepharose, eluted with glutathione; Ni-agarose); incubated with lambda phosphatase; not shown: GST, N-terminal, kept; His6, C-terminal, kept
With B2, the binding result in data set [2] is reported as “binds”.

B3: GST-Plk4 (Kinase + L1)-His6, kinase-dead (D154A) (domain or fragment, human, UniProt O00444 1-585, looked up)
chain: MATCIGEKIEDFKVGNLLGKGSFAGVYRAESIHTGLEVAIKMIDKKAMYKAGMVQRVQNEVKIHCQLKHPSILELYNYFEDSNYVYLVLEMCHNGEMNRYLKNRVKPFSENEARHFMHQIITGMLYLHSHGILHRDLTLSNLLLTRNMNIKIAAFGLATQLKMPHEKHYTLCGTPNYISPEIATRSAHGLESDVWSLGCMFYTLLIGRPPFDTDTVKNTLNKVVLADYEMPSFLSIEAKDLIHQLLRRNPADRLSLSSVLDHPFMSRNSSTKSKDLGTVEDSIDSGHATISTAITASSSTSISGSLFDKRRLLIGQPLPNKMTVFPKNKSSTDFSSSGDGNSFYTQWGNQETSNSGRGRVIQDAEERPHSRYLRRAYSSDRSGTSNSQSQAKTYTMERCHSAEMLSVSKRSGGGENEERYSPTDNNANIFNFFKEKTSSSSGSFERPDNNQALSNHLCPGKTPFPFADPTPQTETVQQWFGNLQINAHLRKTTEYDSISPNRDFQGHPDLQKDTSKNAWTDTKVKKNSDASDNAHSVKQQNTMKYMTALHSKPEIIQQECVFGSDPLSEQSKTRGMEPPWGYQNR
notes: human Polo-like kinase 4 (Plk4), kinase domain and Linker 1, residues 1-585, kinase-dead; also called KD; source: E. coli BL21 gold (DE3), purified (glutathione sepharose, eluted with glutathione; Ni-agarose); not shown: GST, N-terminal, kept; His6, C-terminal, kept
In the case of B3, the binding result in data set [2] is “binds”.
